The target of the assay is purified TslA lipase domain (N-terminal domain of SAOUHSC_00406) (S. aureus) (UniProt Q2G0W8). The assay can be described thus: ITC; 30 uM TslA in the cell, 300 uM TilA in the syringe; 20 mM HEPES pH 7.5, 150 mM NaCl, 25 °C; Microcal PEAQ-ITC. A general note: ITC needs no label: the signal is the heat of the interaction.

B1: purified TilA lacking its signal sequence, His tag removed (SAOUHSC_00405) (natural protein)
chain: CGNMKDEQKKEEQTNKTDSKEEQIKKSFAKTLDMYPIKNLEDLYDKEGYRDGEFKKGDKGTWTILTGFSKSNKPGVLDDEGMVLYLNRNTKKATGYYFVNKVYDDISKNHNEKKYRVELKNNKIVLLDNVEDKKLKQKIENFKFFSQYADFKDLKNYQDGNITTNENVPSYEAQYKMNNSDKNVKKLREIYPITTNNSPNLKLYIDGDIKGSSVGYKKIEYKFSKDKGQETTLRDYLNFGPSEGENVE
For the molecule B1, the Kd – broadly, the concentration at which binding is half-saturated – is 14.2 nM; the dH was -20.5 kcal/mol; the stoichiometry N (commonly the number of molecules, sites or subunits per partner or assembly) was 0.88.

Source of the values: paper PMC10730906.
